± gives the uncertainty stated by the source.
B1: GA-binding protein alpha chain, residues 172 to 250; numbered along this chain, Q06546 (parent)
chain: GYRKEQERLGIPYDPIQWSTDQVLHWVVWVMKEFSMTDIDLTTLNISGRELCSLNQEDFFQRVPRGEILWSHLELLRKY

Variants of: B1
Experiment: abundance fitness (aPCA) (normalised: wild type 0, dead -1); higher = more abundant; growth selection in yeast, the domain comes from the species named
Details: Homo sapiens

| Variant | abundance fitness |
| --- | --- |
| GYYKEQERLGIPYDPIQWSTDQVLHWVVWVMKEFSMTDIDLTTLNISGRELCSLNQEDFFQRVPRGEILWSHLELLRKY [R3Y] | -0.19 ± 0.077 |
| GYRAEQERLGIPYDPIQWSTDQVLHWVVWVMKEFSMTDIDLTTLNISGRELCSLNQEDFFQRVPRGEILWSHLELLRKY [K4A] | -0.063 ± 0.044 |
| GYRCEQERLGIPYDPIQWSTDQVLHWVVWVMKEFSMTDIDLTTLNISGRELCSLNQEDFFQRVPRGEILWSHLELLRKY [K4C] | -0.27 ± 0.055 |
| GYRDEQERLGIPYDPIQWSTDQVLHWVVWVMKEFSMTDIDLTTLNISGRELCSLNQEDFFQRVPRGEILWSHLELLRKY [K4D] | -0.104 ± 0.063 |
| GYREEQERLGIPYDPIQWSTDQVLHWVVWVMKEFSMTDIDLTTLNISGRELCSLNQEDFFQRVPRGEILWSHLELLRKY [K4E] | -0.072 ± 0.071 |
| GYRFEQERLGIPYDPIQWSTDQVLHWVVWVMKEFSMTDIDLTTLNISGRELCSLNQEDFFQRVPRGEILWSHLELLRKY [K4F] | -0.131 ± 0.071 |
| GYRHEQERLGIPYDPIQWSTDQVLHWVVWVMKEFSMTDIDLTTLNISGRELCSLNQEDFFQRVPRGEILWSHLELLRKY [K4H] | -0.003 ± 0.11 |
| GYRIEQERLGIPYDPIQWSTDQVLHWVVWVMKEFSMTDIDLTTLNISGRELCSLNQEDFFQRVPRGEILWSHLELLRKY [K4I] | 0.054 ± 0.062 |
| GYRNEQERLGIPYDPIQWSTDQVLHWVVWVMKEFSMTDIDLTTLNISGRELCSLNQEDFFQRVPRGEILWSHLELLRKY [K4N] | -0.032 ± 0.2 |
| GYRPEQERLGIPYDPIQWSTDQVLHWVVWVMKEFSMTDIDLTTLNISGRELCSLNQEDFFQRVPRGEILWSHLELLRKY [K4P] | -0.326 ± 0.067 |
| GYRQEQERLGIPYDPIQWSTDQVLHWVVWVMKEFSMTDIDLTTLNISGRELCSLNQEDFFQRVPRGEILWSHLELLRKY [K4Q] | -0.106 ± 0.084 |
| GYRREQERLGIPYDPIQWSTDQVLHWVVWVMKEFSMTDIDLTTLNISGRELCSLNQEDFFQRVPRGEILWSHLELLRKY [K4R] | -0.029 ± 0.03 |
| GYRSEQERLGIPYDPIQWSTDQVLHWVVWVMKEFSMTDIDLTTLNISGRELCSLNQEDFFQRVPRGEILWSHLELLRKY [K4S] | -0.026 ± 0.035 |
| GYRTEQERLGIPYDPIQWSTDQVLHWVVWVMKEFSMTDIDLTTLNISGRELCSLNQEDFFQRVPRGEILWSHLELLRKY [K4T] | -0.067 ± 0.1 |
| GYRVEQERLGIPYDPIQWSTDQVLHWVVWVMKEFSMTDIDLTTLNISGRELCSLNQEDFFQRVPRGEILWSHLELLRKY [K4V] | -0.045 ± 0.038 |
| GYRWEQERLGIPYDPIQWSTDQVLHWVVWVMKEFSMTDIDLTTLNISGRELCSLNQEDFFQRVPRGEILWSHLELLRKY [K4W] | -0.12 ± 0.041 |
| GYRYEQERLGIPYDPIQWSTDQVLHWVVWVMKEFSMTDIDLTTLNISGRELCSLNQEDFFQRVPRGEILWSHLELLRKY [K4Y] | -0.1 ± 0.073 |

| Variant | abundance fitness |
| --- | --- |
| GYRKAQERLGIPYDPIQWSTDQVLHWVVWVMKEFSMTDIDLTTLNISGRELCSLNQEDFFQRVPRGEILWSHLELLRKY [E5A] | -0.608 ± 0.058 |
| GYRKCQERLGIPYDPIQWSTDQVLHWVVWVMKEFSMTDIDLTTLNISGRELCSLNQEDFFQRVPRGEILWSHLELLRKY [E5C] | -0.288 ± 0.07 |
| GYRKDQERLGIPYDPIQWSTDQVLHWVVWVMKEFSMTDIDLTTLNISGRELCSLNQEDFFQRVPRGEILWSHLELLRKY [E5D] | -0.371 ± 0.074 |
| GYRKFQERLGIPYDPIQWSTDQVLHWVVWVMKEFSMTDIDLTTLNISGRELCSLNQEDFFQRVPRGEILWSHLELLRKY [E5F] | -0.419 ± 0.088 |
| GYRKHQERLGIPYDPIQWSTDQVLHWVVWVMKEFSMTDIDLTTLNISGRELCSLNQEDFFQRVPRGEILWSHLELLRKY [E5H] | -0.354 ± 0.13 |
| GYRKIQERLGIPYDPIQWSTDQVLHWVVWVMKEFSMTDIDLTTLNISGRELCSLNQEDFFQRVPRGEILWSHLELLRKY [E5I] | 0.004 ± 0.064 |
| GYRKKQERLGIPYDPIQWSTDQVLHWVVWVMKEFSMTDIDLTTLNISGRELCSLNQEDFFQRVPRGEILWSHLELLRKY [E5K] | -0.806 ± 0.22 |
| GYRKLQERLGIPYDPIQWSTDQVLHWVVWVMKEFSMTDIDLTTLNISGRELCSLNQEDFFQRVPRGEILWSHLELLRKY [E5L] | -0.45 ± 0.05 |
| GYRKMQERLGIPYDPIQWSTDQVLHWVVWVMKEFSMTDIDLTTLNISGRELCSLNQEDFFQRVPRGEILWSHLELLRKY [E5M] | -0.281 ± 0.077 |
| GYRKNQERLGIPYDPIQWSTDQVLHWVVWVMKEFSMTDIDLTTLNISGRELCSLNQEDFFQRVPRGEILWSHLELLRKY [E5N] | -0.897 ± 0.24 |
| GYRKPQERLGIPYDPIQWSTDQVLHWVVWVMKEFSMTDIDLTTLNISGRELCSLNQEDFFQRVPRGEILWSHLELLRKY [E5P] | -0.958 ± 0.19 |
| GYRKQQERLGIPYDPIQWSTDQVLHWVVWVMKEFSMTDIDLTTLNISGRELCSLNQEDFFQRVPRGEILWSHLELLRKY [E5Q] | -0.485 ± 0.074 |
| GYRKRQERLGIPYDPIQWSTDQVLHWVVWVMKEFSMTDIDLTTLNISGRELCSLNQEDFFQRVPRGEILWSHLELLRKY [E5R] | -0.913 ± 0.078 |
| GYRKSQERLGIPYDPIQWSTDQVLHWVVWVMKEFSMTDIDLTTLNISGRELCSLNQEDFFQRVPRGEILWSHLELLRKY [E5S] | -0.742 ± 0.057 |
| GYRKTQERLGIPYDPIQWSTDQVLHWVVWVMKEFSMTDIDLTTLNISGRELCSLNQEDFFQRVPRGEILWSHLELLRKY [E5T] | -0.347 ± 0.093 |
| GYRKVQERLGIPYDPIQWSTDQVLHWVVWVMKEFSMTDIDLTTLNISGRELCSLNQEDFFQRVPRGEILWSHLELLRKY [E5V] | -0.093 ± 0.042 |
| GYRKWQERLGIPYDPIQWSTDQVLHWVVWVMKEFSMTDIDLTTLNISGRELCSLNQEDFFQRVPRGEILWSHLELLRKY [E5W] | -0.442 ± 0.094 |

From the Human Domainome abundance scans (Beltran et al. 2025)
